Target: HAF protein (trimeric recombinant H5N1 hemagglutinin ectodomain with the bacteriophage T4 fibritin fold on trimerization sequence) (influenza A virus A/Anhui/1/2005 (H5N1) | bacteriophage T4)
Assay: SEC; […], running buffer pH 8.0 ([…]

HAF protein (trimeric recombinant H5N1 hemagglutinin ectodomain with the bacteriophage T4 fibritin fold on trimerization sequence)
stoichiometry N: 3
